Experimental data taken from PMC11109247.

Key:
[1] = target: ephrinB2-Fc chimaera (human ephrin-B2 residues 1-229, IEGRMD linker, human IgG1 residues 100-330) (human) (UniProt P52799); experiment: SDS-PAGE without reduction and boiling
[2] = target: ephrinB3-Fc chimaera (human ephrin-B3 residues 28-224, IEGRMD linker, human IgG1 residues 100-330) (human) (UniProt Q15768); experiment: SDS-PAGE without reduction and boiling
[3] = target: soluble NiVMY G ectodomain used for structural determination (residues 72-602, His tag) (Nipah virus Malaysia (NiVMY)) (UniProt Q9IH62); experiment: negative-stain electron microscopy; soluble NiVMY G ectodomain alone

Chain of ephrinB2-Fc chimaera (human ephrin-B2 residues 1-229, IEGRMD linker, human IgG1 residues 100-330) (P52799 28-229): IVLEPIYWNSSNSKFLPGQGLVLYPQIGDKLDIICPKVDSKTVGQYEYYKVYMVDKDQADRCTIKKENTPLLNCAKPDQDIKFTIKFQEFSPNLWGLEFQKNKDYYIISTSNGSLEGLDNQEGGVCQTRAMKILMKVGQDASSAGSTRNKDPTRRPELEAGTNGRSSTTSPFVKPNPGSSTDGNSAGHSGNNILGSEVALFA
Chain of soluble NiVMY G ectodomain used for structural determination (residues 72-602, His tag) (Q9IH62 72-602): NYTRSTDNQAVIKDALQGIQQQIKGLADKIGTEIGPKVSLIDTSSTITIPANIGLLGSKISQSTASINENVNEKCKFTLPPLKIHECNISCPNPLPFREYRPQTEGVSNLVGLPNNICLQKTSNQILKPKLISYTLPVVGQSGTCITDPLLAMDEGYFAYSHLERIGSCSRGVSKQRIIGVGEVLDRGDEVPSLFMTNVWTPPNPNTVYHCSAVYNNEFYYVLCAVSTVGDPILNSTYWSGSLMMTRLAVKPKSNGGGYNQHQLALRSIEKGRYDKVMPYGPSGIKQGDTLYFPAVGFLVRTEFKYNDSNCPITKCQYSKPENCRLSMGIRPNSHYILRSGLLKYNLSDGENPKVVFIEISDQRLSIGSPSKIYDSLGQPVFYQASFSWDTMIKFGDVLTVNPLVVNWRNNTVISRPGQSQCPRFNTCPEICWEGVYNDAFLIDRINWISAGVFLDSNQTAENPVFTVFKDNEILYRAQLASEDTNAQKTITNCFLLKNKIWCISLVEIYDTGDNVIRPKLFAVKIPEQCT
Chain of ephrinB3-Fc chimaera (human ephrin-B3 residues 28-224, IEGRMD linker, human IgG1 residues 100-330) (Q15768 28-224): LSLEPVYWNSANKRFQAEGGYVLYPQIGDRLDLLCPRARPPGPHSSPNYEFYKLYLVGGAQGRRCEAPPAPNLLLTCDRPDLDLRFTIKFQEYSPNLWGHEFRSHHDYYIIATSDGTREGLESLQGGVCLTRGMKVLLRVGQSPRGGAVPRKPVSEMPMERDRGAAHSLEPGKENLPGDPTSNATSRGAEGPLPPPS

“ephrinB2-Fc chimaera (human ephrin-B2 residues 1-229, IEGRMD linker, human IgG1 residues 100-330) (from UniProt P52799 28-229) (Fc fusion)” showed a stoichiometry N [1] of 2.

For “ephrinB3-Fc chimaera (human ephrin-B3 residues 28-224, IEGRMD linker, human IgG1 residues 100-330) (from UniProt Q15768 28-224) (Fc fusion)”, the stoichiometry N [2] was 2.

For “soluble NiVMY G ectodomain used for structural determination (residues 72-602, His tag) (from UniProt Q9IH62 72-602) (domain or fragment)”, the stoichiometry N [3] was 4.
